Reference: article PMC11036628

Molecular target: Dectin-1 (mouse (endogenous in bone marrow-derived dendritic cells)) (UniProt Q6QLQ4)
UniProt Q6QLQ4, sequence (Q6QLQ4 whole entry): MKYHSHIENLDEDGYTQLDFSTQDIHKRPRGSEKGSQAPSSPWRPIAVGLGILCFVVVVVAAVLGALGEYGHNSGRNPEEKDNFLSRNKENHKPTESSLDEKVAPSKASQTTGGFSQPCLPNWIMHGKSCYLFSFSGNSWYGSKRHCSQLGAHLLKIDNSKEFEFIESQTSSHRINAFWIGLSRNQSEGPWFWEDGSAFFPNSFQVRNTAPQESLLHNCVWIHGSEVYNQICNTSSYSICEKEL

Substance: Neem Leaf Glycoprotein (natural protein)
- IL-10 transcripts by quantitative PCR on NLGP addition to tumour-conditioned mBMDCs; counterbalanced by Laminarin, Dectin-1 siRNA and both: 4.5 fold
- IL-12p35 transcripts by quantitative PCR on NLGP addition to tumour-conditioned mBMDCs; counterbalanced by Laminarin, Dectin-1 siRNA and both: 1.5 fold
